In IntAct's records for PubMed 22990239:

B1: Heat shock 70 kDa protein 4 (Homo sapiens), P34932 (parent)
chain: MSVVGIDLGFQSCYVAVARAGGIETIANEYSDRCTPACISFGPKNRSIGAAAKSQVISNAKNTVQGFKRFHGRAFSDPFVEAEKSNLAYDIVQLPTGLTGIKVTYMEEERNFTTEQVTAMLLSKLKETAESVLKKPVVDCVVSVPCFYTDAERRSVMDATQIAGLNCLRLMNETTAVALAYGIYKQDLPALEEKPRNVVFVDMGHSAYQVSVCAFNRGKLKVLATAFDTTLGGRKFDEVLVNHFCEEFGKKYKLDIKSKIRALLRLSQECEKLKKLMSANASDLPLSIECFMNDVDVSGTMNRGKFLEMCNDLLARVEPPLRSVLEQTKLKKEDIYAVEIVGGATRIPAVKEKISKFFGKELSTTLNADEAVTRGCALQCAILSPAFKVREFSITDVVPYPISLRWNSPAEEGSSDCEVFSKNHAAPFSKVLTFYRKEPFTLEAYYSSPQDLPYPDPAIAQFSVQKVTPQSDGSSSKVKVKVRVNVHGIFSVSSASLVEVHKSEENEEPMETDQNAKEEEKMQVDQEEPHVEEQQQQTPAENKAESEEMETSQAGSKDKKMDQPPQAKKAKVKTSTVDLPIENQLLWQIDREMLNLYIENEGKMIMQDKLEKERNDAKNAVEEYVYEMRDKLSGEYEKFVSEDDRNSFTLKLEDTENWLYEDGEDQPKQVYVDKLAELKNLGQPIKIRFQESEERPKLFEELGKQIQQYMKIISSFKNKEDQYDHLDAADMTKVEKSTNEAMEWMNNKLNLQNKQSLTMDPVVKSKEIEAKIKELTSTCSPIISKPKPKVEPPKEEQKNAEQNGPVDGQGDNPGPQAAEQGTDTAVPSDSDKKLPEMDID

Variants of: B1
Settings: with hsp7c_human HSPA8, P11142
Sequence of hsp7c_human HSPA8, P11142 (P11142 whole entry, looked up): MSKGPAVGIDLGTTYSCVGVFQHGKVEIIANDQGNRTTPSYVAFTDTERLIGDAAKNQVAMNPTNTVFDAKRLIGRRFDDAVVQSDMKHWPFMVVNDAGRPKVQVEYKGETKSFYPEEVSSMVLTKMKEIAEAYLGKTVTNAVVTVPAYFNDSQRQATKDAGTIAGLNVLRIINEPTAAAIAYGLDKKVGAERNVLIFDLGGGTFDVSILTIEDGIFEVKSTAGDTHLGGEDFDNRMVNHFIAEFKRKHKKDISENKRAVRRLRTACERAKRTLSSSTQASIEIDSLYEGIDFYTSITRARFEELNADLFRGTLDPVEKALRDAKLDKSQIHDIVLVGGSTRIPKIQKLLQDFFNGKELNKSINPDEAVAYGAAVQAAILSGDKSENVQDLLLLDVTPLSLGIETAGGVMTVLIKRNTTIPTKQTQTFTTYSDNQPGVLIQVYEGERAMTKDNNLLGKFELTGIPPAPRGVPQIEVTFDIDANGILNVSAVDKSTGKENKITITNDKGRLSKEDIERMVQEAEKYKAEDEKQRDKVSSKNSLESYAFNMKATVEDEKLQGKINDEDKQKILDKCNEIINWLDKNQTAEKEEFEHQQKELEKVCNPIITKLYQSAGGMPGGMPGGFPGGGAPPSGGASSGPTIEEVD

Row | effect of a mutation on the interaction | Variant
1 | decreasing interaction | N619Y
2 | decreasing interaction | E622A
